Laboratory results: patent US10494415B2, “Insulin-like growth factor 2 (IGF2) binding agents” (Cancer Research Technology Limited, priority 2015, dated 2019)
Residue numbers refer to the chain shown, from its start. Names may count otherwise. “Also recorded” adds a separate entry of the source. Marks after values point to notes of the source that are not given here.

B1: Fc-domain 11^AB5: human IgG1 Fc-fusion of domain 11^AB5 (protein)
chain: NEHDDCQVTNPSTGHLFDLSSLSGRAGFTAAYAKGWGVYMSICGENENCPPGVGACFGQTRISVGKANKRLRYVDQVLQLVYKDGSPCPSKSGLSYKSVISFVCRPEAGPTNRPMLISLDKQTCTLFFSWHTPLACEQAT
modifications: left off: a dimerising Fc or GST
notes: human IgG1 Fc-fusion of domain 11^AB5
B2: Fc-domain 11^I1572A: low binder Fc-domain 11 fusion with I1572A, non-IGF2 binding control (protein)
chain: B1 chain with A33S, K34E, G35K, W36G, G37L, I62A
modifications: left off: a dimerising Fc or GST
B3: AB5: IGF2R domain 11 with five AB loop mutations S1543A, E1544K, K1545G, G1546W, L1547G (YAKGWG) (protein)
chain: MKSNEHDDCQVTNPSTGHLFDLSSLSGRAGFTAAYAKGWGVYMSICGENENCPPGVGACFGQTRISVGKANKRLRYVDQVLQLVYKDGSPCPSKSGLSYKSVISFVCRPEAGPTNRPMLISLDKQTCTLFFSWHTPLACEQATECSV

Tests used:
Huh7 cells = assay: Apoptosis in hepatocellular carcinoma cells; assay type: cell-based, human
IGF2^1-156 = target: T1, IGF2^1-156 (Homo sapiens, UniProt P01344); assay: SPR of IGF forms on Fc-domain 11 proteins immobilised by antibody capture; assay type: binding; settings: for Kinetics koff: HBS-EP pH 7.4; for Kinetics kon: may be inaccurate (mixture of three isoforms)
T1 construct: pro-IGF2^1-156 [17 kDa]
T1 sequence (P01344 25-180): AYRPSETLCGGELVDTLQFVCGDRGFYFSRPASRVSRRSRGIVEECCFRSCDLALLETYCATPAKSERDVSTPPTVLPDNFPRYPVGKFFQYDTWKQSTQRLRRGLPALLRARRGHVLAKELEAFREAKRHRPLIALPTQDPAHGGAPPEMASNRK
Method: (§1) SPR analysis of the interaction of recombinant IGF1 and IGF2 forms with Fc-domain 11 proteins immobilised by antibody capture (CM5 chip containing monoclonal mouse anti-human IgG antibody immobilised by amine coupling). Measurements were carried out at 25° C. in HBS-EP buffer (pH 7.4).
(§2) Final kinetic analysis of mutants by SPR was conducted using a Biacore T200 biosensor at 25° C. in either HBS-EP (10 mM HEPES pH 7.4, 150 mM NaCl, 3 mM EDTA, and 0.005% (v/v) surfactant P20) or MES-EP (20 mM MES pH 6.5, 150 mM NaCl, 3 mM EDTA, and 0.005% (v/v) surfactant P20) at a flow-rate of 40 μL min^−1. […] For the analysis of the Fc-domain 11^AB5 interaction, approximately 50 RU of a biotinylated IGF2:biotinylated ubiquitin mixture (1:8 proportion) was immobilized on the CM5-streptavidin chip. This interaction was also analysed by immobilizing the Fc-domain 11^AB5 and Fc-domain 11^AB5-RHH (or Fc-domain 11^I1572A as control) by Human Antibody Capture (monoclonal mouse anti-human IgG antibody immobilised on a CM5 chip by amine coupling, GE Healthcare) with and without human IgG1 Fc fragment (Bethyl Laboratories, UK) in the control flow cell. Increasing concentrations of IGF2^1-67, proIGF2^1-104, proIGF2^1-156 and IGF1 ranging from 0.125 to 32 nM were injected. T200 BiaEvaluation software (GE Healthcare) was used to fit the resulting curves according to a 1:1 binding model. Steady state affinities were determined using the kinetic data, taking the response average at 5 seconds before injection end and for 5 seconds average. Thermodynamic data was performed across the temperature range of 10° C. to 30° C., van't Hoff and Erying plots generated and ΔH, −TΔS and ΔG values determined as previously described.

IGF2^1-67 = target: T2, IGF2^1-67 (Homo sapiens, UniProt P01344); assay: as above; assay type: binding; settings: HBS-EP pH 7.4
T2 construct: Recombinant mature (IGF2^1-67 [7.5 kDa]
T2 sequence (P01344 25-91): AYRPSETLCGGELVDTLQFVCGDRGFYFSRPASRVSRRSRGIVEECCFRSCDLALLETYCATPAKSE
Method: as §1, §2

IGF2^1-104 = target: T3, IGF2^1-104 (Homo sapiens, UniProt P01344); assay: as above; assay type: binding; settings: HBS-EP pH 7.4
T3 construct: pro-IGF2 (pro-IGF2^1-104 [11 kDa]
T3 sequence (P01344 25-128): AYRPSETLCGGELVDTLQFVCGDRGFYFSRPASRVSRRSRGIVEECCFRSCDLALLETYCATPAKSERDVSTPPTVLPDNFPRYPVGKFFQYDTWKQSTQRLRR
Method: as §1, §2

[1] = tested on: IGF2^1-67-induced hypoglycaemia; assay: IGF2-induced hypoglycaemia mouse model; assay type: in vivo
Source text: All animal experiments were approved by the animal use ethical committee of Oxford University and fully complied with UK Home Office guidelines (PPL 30/2695). Wild-type C57BL/6J and 129S2 mice were used throughout. Mice were anaesthetised using a rising concentration of isoflurane in oxygenated air and maintained using 2% isoflurane with 2 L min^−1 oxygen. Blood glucose measurements were taken using an Advantage diabetic glucose meter (Roche Diagnostics, Burgess Hill, UK). In order to test the direct inhibition of IGF2-induced hypoglycaemia by Fc-domain 11^AB5, blood glucose levels were allowed to normalise for 30 min prior to taking a baseline blood glucose reading, then either 1 mg kg^−1 IGF2 only (R&D systems), […], Fc-domain 11^RHH, or Fc-domain 11^I1572A ([…]) was injected. Blood glucose measurements were taken every 10 min for the following hour. For the Fc-domain 11^AB5 mouse preloading experiment, 11.7 mg kg^−1 Fc-domain 11^AB5 or PBS, as negative control, was injected immediately after induction of anaesthesia, 30 mins later a baseline blood glucose reading was taken and 1 mg kg^−1 IGF2 ([…]) was injected, readings were then taken every 10 min for the following hour. For the mouse IGF2 preloading experiment, 1 mg kg^−1 IGF2 was injected immediately after induction of anaesthesia, 30 min later a baseline blood glucose reading was taken and either 11.7 mg kg^−1 Fc-domain 11^AB5 ([…]) or PBS was injected, readings were then taken every 10 min for the following hour.

Hep3B cells = assay: Cell proliferation assay (EdU incorporation); assay type: cell-based, human; settings: relative to OSI-06
Method: EdU incorporation was used to measure cell proliferation (Invitrogen, C10338). Briefly, cells were plated at a density of 2×10^5 cells/well in 6-well plates and cultured in serum free media. After 24 hr of serum starvation, PBS (black) and 1.5 μM Fc-domain 11^I1572 (grey) as negative controls, 0.5 and 1.5 μM Fc-domain 11^AB5 (orange), 1 μM OSI-906 (purple) and 0.1 and 0.5 μM doxycycline (green) as positive controls were added to the different wells and cells were further cultured. After 48 hr, 10 μM EdU was added for 3 hr and cells were then washed and trypsinised, followed by fixation in 4% PFA and permeabilisation in TBS/5% Triton. The Alexa 555 dye was then attached to the EdU molecules by click chemistry following the manufacturer's instructions and the % of EdU incorporation under different conditions was then analysed by flow cytometry.

Hep 3B2.1-7 cells = assay: In vitro cell viability (CellTiter 96 AQueous); assay type: cell-based, human; settings: cell line not specified in the sentence (FIG. 10: Hep3B, Huh7)
Method: The human hepatocellular carcinoma cell lines Hep 3B2.1-7 and Huh-7D12 were obtained from the ATCC (HB-8065) and the ECACC (Catalogue number 1042712), respectively. Hep 3B2.1-7 was grown in EMEM (Lonza) supplemented with 10% (v/v) fetal bovine serum, 100 U mL-1 penicillin, 100 μg mL-1 streptomycin, and 2 mM Lglutamine Huh-7D12 was grown in DMEM (Sigma) supplemented with 10% fetal bovine serum, 100 U mL-1 penicillin, 100 μg mL-1 streptomycin, and 2 mM L-glutamine. Cells were plated in 96-well plates at a density of 1-2×10^4 cells/well in serum free medium. After 24 hr, Fc-domain 11^AB5 (orange), Fc-domain 11^I1572A as negative control (grey) or OSI-906 (purple) were added to each well to different final concentrations and the cells were incubated for further 48-72 hr. Cell viability was assayed at 48 and 72 hr after Fc-domain 11^AB5 treatment using the CellTiter 96® AQueous Non-Radioactive Cell Proliferation Assay (Promega). The half maximal inhibitory concentration (IC50) was calculated using graph prism.

IGF2 = IGF2 (Homo sapiens, UniProt P01344); assay: SPR (Biacore T200) of recombinant IGF2R domain 11 mutants on immobilised biotinylated IGF2; assay type: binding; set-up: purchased GroPep
Chain of IGF2 (P01344 25-91): as the sequence (P01344 25-91) above
In short: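 Biotinylated IGF2 (or IGF1) captured on streptavidin chip; domain 11 mutants (E. coli or P. pastoris, AB5 background) injected at 25 °C, 40 μL/min, in HBS-EP pH 7.4 or MES-EP pH 6.5. kon/koff from 1:1 fit; KD as mean of 2-5 repeats.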

IGF1 = IGF1 (Homo sapiens, UniProt P05019); assay: SPR of domain 11 mutants on immobilised biotinylated IGF1 (specificity); assay type: binding
Chain of IGF1 (P05019 49-118): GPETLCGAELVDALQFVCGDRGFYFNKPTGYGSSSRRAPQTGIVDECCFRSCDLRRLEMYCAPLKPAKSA
Source text: Surface plasmon resonance (SPR) binding analysis of recombinant M6P/IGF2R domain 11 mutants interaction with IGF2. Kon indicates association (on) rate; koff, dissociation (off) rate; RU, response units. Binding to IGF2 assessed with BIAcore T200 using purified biotinylated IGF2 and IGF1 on a streptavidin biosensor chip. Recombinant proteins were expressed either in E. coli and/or P. pastoris. All the mutants in the FG and CD loops are on the domain 11^AB5 background for the AB loop unless otherwise stated. All experiments were carried out at 25° C. in HBS-EP buffer (pH 7.4), were repeated 2-5 times on two independent BIAcore chips. nd=not determined. Data for KD expressed as mean of each experiment, and means of kon and koff are shown.
Final kinetic analysis of mutants by SPR was conducted using a Biacore T200 biosensor at 25° C. in either HBS-EP (10 mM HEPES pH 7.4, 150 mM NaCl, 3 mM EDTA, and 0.005% (v/v) surfactant P20) or MES-EP (20 mM MES pH 6.5, 150 mM NaCl, 3 mM EDTA, and 0.005% (v/v) surfactant P20) at a flow-rate of 40 μL min^−1. […] This interaction was also analysed by immobilizing the Fc-domain 11^AB5 and Fc-domain 11^AB5-RHH (or Fc-domain 11^I1572A as control) by Human Antibody Capture (monoclonal mouse anti-human IgG antibody immobilised on a CM5 chip by amine coupling, GE Healthcare) with and without human IgG1 Fc fragment (Bethyl Laboratories, UK) in the control flow cell. […]

[2] = pre-loading, co-injection or post-loading

Row | Molecule | Apoptosis (Huh7 cells) | Kinetics koff (IGF2^1-156) [s⁻¹] | Kinetics kon (IGF2^1-156) | Kinetics koff (IGF2^1-67) [s⁻¹] | Kinetics kon (IGF2^1-67) [M⁻¹ s⁻¹] | Kinetics koff (IGF2^1-104) [s⁻¹] | Kinetics kon (IGF2^1-104) [M⁻¹ s⁻¹] | IGF2-induced hypoglycaemia (blood glucose) ([1]; administered 30 min after 1 mg kg^−1 IGF2^1-67) | IGF2-induced hypoglycaemia (blood glucose) [1, 2] | IGF2-induced hypoglycaemia (blood glucose) ([1]; preloading 30 min before 1 mg kg^−1 IGF2^1-67) | IGF2-induced hypoglycaemia (blood glucose) ([1]; premixed / co-injected with 1 mg kg^−1 IGF2^1-67, molar ratio 1:1) | Proliferation (Hep3B cells) | Inhibitory effect on cell lines (Hep 3B2.1-7 cells) | Kinetics koff (IGF2; Table 1, 25° C., HBS-EP pH 7.4) [s⁻¹] | Kinetics kon (IGF2; Table 1, 25° C., HBS-EP pH 7.4) [M⁻¹ s⁻¹] | Kinetics koff (IGF2; Table 3, 25° C., HBS-EP pH 7.4) [s⁻¹] | Kinetics kon (IGF2; Table 3, 25° C., HBS-EP pH 7.4) [M⁻¹ s⁻¹] | Kinetics koff (IGF2; Table 4, MES-EP pH 6.5) [s⁻¹] | Kinetics kon (IGF2; Table 4, MES-EP pH 6.5) [M⁻¹ s⁻¹] | IGF2 specificity with respect to IGF1 (IGF1)
1 | B1 | promoted | 0.0009 | 4.19* ×10^6 M^−1s^−1 | 0.025 | 6.47e+06 | 0.0069 | 1.287e+07 | can reverse IGF2-induced hypoglycaemia | significant abrogation of the hypoglycaemic effects | protects against IGF2-induced hypoglycaemia | abrogation; also recorded: prevents IGF2-induced hypoglycaemia | inhibited |  |  |  |  |  |  |  | 
2 | B2 |  | 0.0008 | 0.29* ×10^6 M^−1s^−1 |  |  | 0.002 | 520000 |  | not detected |  |  |  | no effect |  |  |  |  |  |  | 
3 | B3 |  |  |  |  |  |  |  |  |  |  |  |  |  | 0.0208 | 4.21e+06 | 0.0208 | 4.21e+06 | 0.0180 | 4.17e+06 | retained IGF2 specificity
